Source: paper PMC8264439
Like-named read-outs stand apart in the source and are kept apart here.

How the values were obtained:
Assay in all cases: SEC; analytical Superdex 200 increase 10/300 GL; 180 μM protein in 50 μL injected; 20 mM Hepes (pH 7.5); 0.75 ml/min; 25°C; dimer to monomers
[1] = molecular target: SARS-CoV-2 3CLpro H41E variant (SARS-CoV-2)
[2] = molecular target: SARS-CoV-2 3CLpro C145S variant (SARS-CoV-2)
[3] = molecular target: SARS-CoV-2 3CLpro C145S variant (SARS-CoV-2); remark: listed apart in the source
[4] = molecular target: SARS-CoV-2 3CLpro H41D variant (SARS-CoV-2)
[5] = molecular target: SARS-CoV-2 3CLpro C145A variant (SARS-CoV-2)
[6] = molecular target: SARS-CoV-2 3CLpro C145A variant (SARS-CoV-2); remark: listed apart in the source
[7] = molecular target: SARS-CoV-2 3CLpro H41A variant (SARS-CoV-2)

## SARS-CoV-2 3CLpro H41E variant (enzyme)
[1]
  stoichiometry N: 2

## SARS-CoV-2 3CLpro C145S variant (enzyme)
[2]
  stoichiometry N: 2
[3]
  stoichiometry N: > 2

## SARS-CoV-2 3CLpro H41D variant (enzyme)
[4]
  stoichiometry N: 2

## SARS-CoV-2 3CLpro C145A variant (enzyme)
[5]
  stoichiometry N: > 2
[6]
  stoichiometry N: 2

## SARS-CoV-2 3CLpro H41A variant (enzyme)
[7]
  stoichiometry N: 2
